Results on one molecule are retold here after patent US20040131613A1 (published 2004).

A word on the kon: it is a measure of how fast the partners come together.

This experiment concerns the target T1, human TNF-α (human, UniProt P01375 77-233).
T1 construct: It was biotinylated in the plaque lift and on-rate ELISA, and coated on plates or beads in the other assays; also called hTNF-α; hTNF
The experiment can be described thus: kinetic exclusion assay (KinExA 3000), 40 pM Fab with 400 pM hTNF-α, time course. As to the method:
Next, binding kinetics of three of the Fab fragments described in Table 4 were determined in a kinetic exclusion assay. Affinity measurements were performed on a KinExA™3000 instrument (Sapidyne Instruments, Inc., Boise, Id.) using Fab fragments (A10K, A9K, and A10P) released from the periplasmic space whose concentration was determined by a quantitative ELISA. Briefly, antigen and antibody fragment were allowed to react in solution and the fraction of unbound reagent was determined by capture and measured on a bead support. Binding kinetics can be determined or calculated from the amount of unbound reagent. For instance, after interaction between TNF-α and a Fab fragment has occurred in solution, binding of the unreacted, free Fab fragment to TNF-α coated beads can be measured on the instrument by detection with a labeled secondary antibody to the Fab fragment (e.g., a goat anti-IgG (heavy and light)). […] After the incubation, the amount of unbound Fab in the equilibrated samples was determined on the KinExA™3000 instrument according to the manufacturer's instructions. Kd values were determined by the instrument software.
To measure kₒₙ, individual Fab fragments at a concentration of 40 pM were mixed with 400 pM of hTNF-α. […] The resulting data was used to calculate the kₒₙ with the instrument software. koff was calculated by using the formula Kd=koff/kₒₙ.
On the technique in general: A kinetic exclusion assay measures how much of one partner remains free in solution.

T1 sequence (P01375 77-233 limits assumed): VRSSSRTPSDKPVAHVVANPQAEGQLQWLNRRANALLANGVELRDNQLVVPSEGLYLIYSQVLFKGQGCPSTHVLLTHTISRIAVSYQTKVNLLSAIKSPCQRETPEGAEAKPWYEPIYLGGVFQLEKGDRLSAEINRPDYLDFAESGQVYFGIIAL

B1: A10K Fab fragment (Fab, V domains shown)
VH: EVQLVESGGGLVQPGGSLRLSCAASGFKFSNHWMNWVRQAPGKGLEWVGEIRSKSMNSATHYAESVKGRFTISRDDSKNSLYLQMNSLKTEDTAVYYCARNYYGSTYDHWGQGTLVTVSS
VL: EIVLTQSPDFQSVTPKEKVTITCRASQFVGYSIHWYQQKPDQSPKLLIKYASESRSGVPSRFSGSGSGTDFTLTINSLEAEDAATYYCQQSHSWHFTFGQGTKVEIK
notes: Fab released from the E. coli periplasm; The light chain is kappa, since it was detected with anti-human kappa; Mutations against hu1: light S31Y, M55R
As to B1, the kon fell in the range of 3.92e+06 to 7.51e+06 M⁻¹ s⁻¹.
